The values that follow are results of earlier work, collected in article PMC7214499.

By Kd is commonly meant the free concentration of one partner at which half of the binding sites on the other are occupied at equilibrium, for simple one-to-one binding.

In the series the target is IFNAR2 ECD (Homo sapiens) (UniProt P48551).
UniProt P48551, sequence (P48551 27-243): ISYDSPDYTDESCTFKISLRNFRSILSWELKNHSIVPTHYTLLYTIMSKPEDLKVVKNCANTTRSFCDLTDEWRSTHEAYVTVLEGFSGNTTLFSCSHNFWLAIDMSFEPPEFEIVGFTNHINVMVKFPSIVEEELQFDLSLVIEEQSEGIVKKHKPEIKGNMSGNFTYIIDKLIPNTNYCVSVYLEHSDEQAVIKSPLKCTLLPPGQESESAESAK

IFNα2 (from UniProt P01563): the Kd is 10 nM.
